Reference: publication PMC9865957, “^68Ga-HBED-CC-WL-12 PET in Diagnosing and Differentiating Pancreatic Cancers in Murine Models” (Pharmaceuticals, 2023)

Experiments:
[1] = in vivo; details: female, C57BL/6, mouse, iv, 3.7 MBq, total radioactivity
Procedure: C57BL/6 female mice were obtained from Shanghai Lingchang Biotechnology Co., LTD, Shanghai, China. The animals were kept in the Animal Experiment Center of Shanghai Changhai Hospital of SPF level. Then, 1 × 10^6 PANC02 cells in 0.1 mL mixture of PBS and Matrigel at a 1:1 ratio was inoculated subcutaneous into the right trunk of the mice. When the tumor reached an average volume of 300–500 mm^3, in vivo experiments of tracer metabolism were performed.
All imaging acquisition was performed on a clinical PET-CT scanner (Biograph64, Siemens Healthcare, Erlangen, Germany). Before imaging, the model mice were injected with 50 μL sodium pentobarbital (3%) into the abdominal cavity for anesthesia. […] For quantification of tracer uptake, 3D regions of interest (ROI) were drawn on the muscle, liver, and tumor.

[2] = system: U87MG cells; experiment: Cellular uptake assay, U87MG cells; type: cell-based, human; details: 1.5 kBq tracer, 45 min incubation with constant shaking, γ-counter, mean ± SD
Procedure: (§1) Murine pancreatic cancer cell PANC02 and human glioma cancer cell U87MG were obtained from Tongpai Biotechnology Co., LTD. The cells were cultured in DMEM medium containing 10% fetal bovine serum (FBS) and 1% penicillin–streptomycin. The cells grew adherent when cultured at 37 °C, 5% CO2, and appropriate humidity.
(§2) PANC02 and U87MG cells incubated to a confluence of approximately 80% in a 10 cm Petri dish were digested, centrifugated, and separated to several EP tubes. Then, the cells were incubated with 1.5 kBq ^68Ga-WL12 in a state of constant shaking for 5, 15, 30, and 45 min. At each time point, precipitation of cells was collected after centrifugating and washing by PBS. The radioactivity for each sample was measured by a γ-counter and calculated as the percentage.

[3] = In vitro stability in saline (ITLC); type: physicochemical; details: 37 °C, read-out ITLC (silica gel paper, 50% acetonitrile), mean ± SD
[4] = in vitro; details: 10% FBS (serum)
Procedure: The radiochemical purity of [^68Ga]-WL12 was determined by thin-layer chromatography (ITLC) using glass microfiber chromatography paper impregnated with a silica gel as the stationary phase and acetonitrile (50%) as the mobile phase. For the evaluation of in vitro stability, [^68Ga]-WL12 was incubated at 37 °C with saline and 10% serum, respectively, for 60 min. Aliquots (3.7 kBq) of each radiolabeled ligand were taken and analyzed by ITLC.

[5] = system: PANC02 cells; experiment: Cellular uptake assay, PANC02 cells; type: cell-based, murine; details: 1.5 kBq tracer, 45 min incubation with constant shaking, γ-counter, mean ± SD
Procedure: as §1, §2

Compound	SUV at 1 h [1] [SUV]	specific binding rate in U87MG [2] [%]	RCP after 60 min incubation in saline [3] [%]	remaining at 1 h [4] [%]	specific binding rate in PANC02 [5] [%]	SUV at 20 min [1] [SUV]	SUV at 1.5 h [1] [SUV]	tissue to tissue ratio at 1.5 h ([1]; tumor-to-liver (T/L) ratio based on SUVmax)	tissue to tissue ratio at 1.5 h ([1]; tumor-to-muscle (T/M) ratio based on SUVmax)
N=C(N)NCCC[C@@H]1NC(=O)[C@H](CCCCNC(=O)CC[C@H](NC(=O)CN2CCN(CC(=O)O)CCN(CC(=O)O)CCN(CC(=O)O)CC2)C(=O)NCCCC[C@@H]2NC(=O)[C@@H](Cc3ccccc3)NC(=O)[C@H](CC(=O)O)NC(=O)CNC(=O)[C@H](CCCNC(=N)N)NC2=O)NC(=O)[C@@H](Cc2ccccc2)NC(=O)[C@H](CC(=O)O)NC(=O)CNC1=O [^68Ga-RGD, metal not drawn, reference compound]	< 0.05	–	–	–	–	–	–	–	–
CCCC[C@H]1C(=O)N(C)[C@@H](CCCC)C(=O)N[C@@H](CCCNC(=O)CCc2ccc(O)c(CN(CCN(CC(=O)O)Cc3cc(CCC(=O)O)ccc3O)CC(=O)O)c2)C(=O)N[C@H](C(=O)NCC(N)=O)CSCC(=O)N[C@@H](Cc2ccc(O)cc2)C(=O)N(C)[C@@H](C)C(=O)N[C@@H](CC(N)=O)C(=O)N2CCC[C@H]2C(=O)N[C@@H](Cc2c[nH]cn2)C(=O)N[C@@H](CC(C)C)C(=O)N2C[C@H](O)C[C@H]2C(=O)N[C@@H](Cc2c[nH]c3ccccc23)C(=O)N[C@@H](CO)C(=O)N[C@@H](Cc2cn(C)c3ccccc23)C(=O)N1C [^68Ga-HBED-CC-WL12, metal not drawn]	–	37.7 ± 2.4	92.5 ± 1.5	56.5 ± 2.3	31.2 ± 9.4	0.37	0.38 ± 0.02	0.45 ± 0.03	> 2
